Measurements: paper doi:10.1101/333286

Target: F-actin (polymerized human platelet actin) (human) (UniProt P60709)
Assay: co-sedimentation

Row | Substance | percent of NMY-2 S1 fragment in the pellet with F-actin [%]
1 | NMY-2(S1)-MLC4-MLC5 complex, NMY-2(R252A) S1 fragment (from UniProt G5EBY3 1-874; Q09510 1-172; Q9XVI9 1-142) | 42
2 | NMY-2(S1)-MLC4-MLC5 complex, NMY-2(S251A) S1 fragment (from UniProt G5EBY3 1-874; Q09510 1-172; Q9XVI9 1-142) | 91
3 | NMY-2(S1)-MLC4-MLC5 complex, wild-type NMY-2 S1 fragment (from UniProt G5EBY3 1-874; Q09510 1-172; Q9XVI9 1-142) | 66
